Legend:
EMTB‐YFP‐CIBN [1] = target: EMTB‐YFP‐CIBN (UniProt Q8GY61)
EMTB‐CFP‐FRB [2] = target: EMTB‐CFP‐FRB
EMTB‐YFP‐CIBN [3] = target: EMTB‐YFP‐CIBN (UniProt Q8GY61); remark: listed apart in the source
EMTB‐CFP‐FRB [4] = target: EMTB‐CFP‐FRB; remark: listed apart in the source

Substance: ACE2‐mNeon‐FKBP
- internalisation of SARS-CoV2 spike‐Alexa Fluor 647 into ACE2-positive HeLa cells after 2 h, rapamycin 100 nM against DMSO (LifeAct‐CFP‐FRB): 89%

Substance: LAMP1‐mCh‐Cry2
- immobilisation of LAMP1-labelled lysosomes under blue light (half time on) (EMTB‐YFP‐CIBN [1]): 6.2 s
- return of lysosome mobility after the end of blue light (half time off) (EMTB‐YFP‐CIBN [1]): 68.8 s

Substance: LAMP1‐mNeon‐FKBP
- motility of LAMP1-labelled lysosomes slowed after rapamycin (half time of the slowing) (EMTB‐CFP‐FRB [2]): 11 s

Substance: TGN38‐mNeon‐FKBP
- motility of post-Golgi vesicles halted after rapamycin 100 nM (half time) (EMTB‐CFP‐FRB [2]): 9 s

Substance: mCh‐Cry2‐VAMP2
- immobilisation of VAMP2-labelled vesicles under blue light (half time on) (EMTB‐YFP‐CIBN [3]): 7 s
- return of VAMP2 vesicle mobility after blue light (half time off) (EMTB‐YFP‐CIBN [3]): 68.1 s

Substance: mNeon‐FKBP‐IFT88
- movement of IFT88 particles along axonemes in cilia of NIH3T3 cells after rapamycin 100 nM (CFP‐FRB‐MAP4m): 20 s

Substance: mNeon‐FKBP‐Rab5b
- motility of endosomes halted after rapamycin 100 nM (half time) (EMTB‐CFP‐FRB [2]): 11.8 s

Substance: mNeon‐FKBP‐Rab11b
- motility of recycling endosomes halted after rapamycin 100 nM (half time) (EMTB‐CFP‐FRB [2]): 12.5 s

Substance: mNeon‐FKBP‐Rab37
- motility of exocytic vesicles halted after rapamycin 100 nM (half time) (EMTB‐CFP‐FRB [2]): 12.3 s

Substance: mNeon‐FKBP‐VAMP2
- immobilisation of VAMP2-labelled vesicles in COS7 cells after rapamycin 100 nM (half time) (EMTB‐CFP‐FRB [4]): 19.2 s
- immobilisation of VAMP2-labelled vesicles in primary culture cortical neurons after rapamycin 100 nM (half time) (EMTB‐CFP‐FRB [4]): 13.6 s
